Measured values from patent US20040063656A1.

Molecular target: wild type human VEGFR-3 (Flt4), long form (human) (UniProt P35916)
Experiment: cell-based or functional assay

UniProt P35916, sequence (P35916 25-1363 limits assumed): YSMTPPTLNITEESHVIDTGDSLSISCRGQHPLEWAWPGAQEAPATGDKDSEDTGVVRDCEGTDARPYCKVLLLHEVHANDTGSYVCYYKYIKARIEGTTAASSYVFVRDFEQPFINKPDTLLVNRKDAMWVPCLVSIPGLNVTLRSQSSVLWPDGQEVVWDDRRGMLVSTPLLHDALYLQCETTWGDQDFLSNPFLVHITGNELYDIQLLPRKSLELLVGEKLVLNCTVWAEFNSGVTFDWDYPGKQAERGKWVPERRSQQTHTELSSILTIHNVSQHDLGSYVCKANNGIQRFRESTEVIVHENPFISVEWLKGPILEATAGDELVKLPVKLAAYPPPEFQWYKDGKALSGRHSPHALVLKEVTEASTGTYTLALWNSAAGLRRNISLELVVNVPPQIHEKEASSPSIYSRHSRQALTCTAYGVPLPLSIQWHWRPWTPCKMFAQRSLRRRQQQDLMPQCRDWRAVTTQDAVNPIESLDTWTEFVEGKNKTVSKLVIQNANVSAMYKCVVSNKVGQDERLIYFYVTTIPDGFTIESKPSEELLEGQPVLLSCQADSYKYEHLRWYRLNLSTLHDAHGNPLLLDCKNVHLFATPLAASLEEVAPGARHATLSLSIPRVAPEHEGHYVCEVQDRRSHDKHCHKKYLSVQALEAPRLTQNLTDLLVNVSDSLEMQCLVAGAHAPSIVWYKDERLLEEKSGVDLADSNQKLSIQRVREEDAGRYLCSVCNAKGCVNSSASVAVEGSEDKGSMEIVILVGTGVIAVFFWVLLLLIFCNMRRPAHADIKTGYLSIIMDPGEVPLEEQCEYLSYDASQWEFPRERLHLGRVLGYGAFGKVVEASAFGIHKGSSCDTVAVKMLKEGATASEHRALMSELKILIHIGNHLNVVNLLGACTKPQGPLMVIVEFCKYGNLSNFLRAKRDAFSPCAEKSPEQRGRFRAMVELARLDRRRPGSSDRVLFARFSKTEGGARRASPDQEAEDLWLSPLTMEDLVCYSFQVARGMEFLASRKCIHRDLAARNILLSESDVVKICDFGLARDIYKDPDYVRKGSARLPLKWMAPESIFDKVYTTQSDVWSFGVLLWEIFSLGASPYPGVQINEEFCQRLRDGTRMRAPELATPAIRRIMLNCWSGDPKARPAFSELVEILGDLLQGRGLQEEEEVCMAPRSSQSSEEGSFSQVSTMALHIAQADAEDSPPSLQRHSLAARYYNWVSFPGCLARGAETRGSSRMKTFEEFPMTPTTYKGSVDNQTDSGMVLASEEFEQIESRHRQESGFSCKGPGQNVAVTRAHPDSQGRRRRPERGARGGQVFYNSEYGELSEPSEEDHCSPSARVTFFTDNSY

## P1114L mutant of human VEGFR-3 (long form) (from UniProt P35916 25-1363) (receptor)
  tyrosine phosphorylation of VEGFR-3 (immunoprecipitation and anti-phosphotyrosine Western blot), 293T cells co-transfected with 75% of WT and 25% of mutant plasmid: 90 % decrease
  tyrosine phosphorylation of VEGFR-3 (immunoprecipitation and anti-phosphotyrosine Western blot), wild type and mutant vectors co-transfected at a 1:1 ratio (% of the wild type alone): 4
